The values that follow come from patent US20200216532A1.

Changes are numbered by the printed parent chain. In names and notes the source's numbering stands.

Sequences and labels used below:
B1: SEQ ID NO: 23, Wildtype VHH (VHH)
VHH: EVQLVESGGGLVQAGGSLRLSCAASGRTFNNYAMGWFRRAPGKEREFVAAITRSGVRSGVSAIYGDSVKDRFTISRDNAKNTLYLQMNSLKPEDTAVYTCAASAIGSGALRRFEYDYSGQGTQVTVSS
B2: SEQ ID NO: 25, Wildtype VHH + K83R (VHH)
VHH: B1 VHH with K91R
B3: SEQ ID NO: 26, Wildtype VHH + Q108L (VHH)
VHH: B1 VHH with Q123L
B4: SEQ ID NO: 24, Wildtype VHH + A14P (VHH)
VHH: B1 VHH with A14P
B5: SEQ ID NO: 29, Wildtype VHH + A14P + R39Q + K83R + T91Y + Q108L + 1 additional A at C-terminus (A114) (VHH)
VHH: B1 VHH with A14P, R39Q, K91R, T99Y, Q123L
B6: SEQ ID NO: 28, Wildtype VHH + A14P + R39Q + K83R + T91Y + Q108L (VHH)
VHH: B1 VHH with A14P, R39Q, K91R, T99Y, Q123L
B7: SEQ ID NO: 30, Wildtype VHH + A14P + R39Q + K83R + T91Y + Q108L + 3 A's at C-terminus (A114 + A115 + A116) (VHH)
VHH: B1 VHH with A14P, R39Q, K91R, T99Y, Q123L
B8: NB 3.12 (VHH)
VHH: EVQLVESGGGLVQAGGSLRLSCAASRSIGRLDRMGWYRHRPGEPRELVATITGGSSINYGDSVKGRFTISIDNSKNTVYLQMNSLRPEDTAVYYCNFNKYVTSRDTWGQGTQVTVSS
B9: NB 3.15 (VHH)
VHH: B8 VHH with L11S, A14P, Q112L
B10: NB 3.10 (VHH)
VHH: B8 VHH with Q112L
B11: NB 3.11 (VHH)
VHH: B8 VHH with A14P, R86K, Q112L
B12: NB 3.14 (VHH)
VHH: B8 VHH with A14P, Q112L, T114Q
B13: NB 3.13 (VHH)
VHH: B8 VHH with A14P
B14: SEQ ID NO: 27, Wildtype VHH + A14P + K83R + Q108L (VHH)
VHH: B1 VHH with A14P, K91R, Q123L

The target of the first experiment is antibodies against ISV in serum sample IHUS#B09032311A1. Put plainly: ECL drug-displacement assay vs labelled SEQ ID NO:1.
Take B1: the % reduction is 4% and the ECLU confirmatory assay turned out to be 60 ECLU.
B2: the % reduction came to 1% and the ECLU confirmatory assay worked out at 62 ECLU.
As to B3, the % reduction was 5% and the ECLU confirmatory assay was 59 ECLU.
As to B4, the % reduction was found to be 10% and the ECLU confirmatory assay came out at 56 ECLU.

Another experiment addresses antibodies against ISV in serum sample IHUS#B09032311A20. The experiment is described as above.
Regarding B1, the % reduction was 53% and the ECLU confirmatory assay was found to be 8680 ECLU.
Taken in the same sequence, the figures for B2 were 63% and 6910 ECLU.
Taken in the same sequence, the figures for B3 were 62% and 6990 ECLU.
As to B4, the % reduction worked out at 96% and the ECLU confirmatory assay was 668 ECLU.

The next experiment deals with antibodies against ISV in serum sample IHUS#B09032311A3. The experiment is described as above.
Regarding B1, the % reduction came to 20% and the ECLU confirmatory assay is 1780 ECLU.
B2: the % reduction was 37% and the ECLU confirmatory assay is 1400 ECLU.
Regarding B5, the % reduction came out at 18%.
For B3, the % reduction stood at 31% and the ECLU confirmatory assay is 1530 ECLU.
As to B6, the % reduction was found to be 90%.
As for B4, the % reduction stood at 91% and the ECLU confirmatory assay stood at 205 ECLU.
Turning to B7, the % reduction amounted to 13%.

In the next experiment the target is analytical polyclonal antibody generated in Example 2. Put plainly: SPR Biacore T100, polyclonal immobilized, 500 nM ISV.
Consider B8, for which the Binding (RU) at end of injection stood at 86 RU.
The same measure, in the same setting: in the case of B9 it was 22 RU; in that of B10, 91 RU.
For B11, the Binding (RU) at end of injection worked out at 88 RU.
Same read-out and setting: in the case of B12 it was 79 RU.
The same measure, in the same setting: then B13, with 90 RU.

The next experiment addresses affinity purified antibody IHuP#002-001-ABL-08. Description: bridging/competition ADA assay, 10 ug/ml ISV vs labelled ISV.
As for B1, the % reduction came out at 7.3% and the ECLU confirmatory assay was 2710 ECLU.
Taken in the same sequence, the figures for B2 were 15.7% and 2460 ECLU.
In the case of B5, the % reduction was 58.6% and the ECLU confirmatory assay stood at 1210 ECLU.
Turning to B14, the % reduction amounted to 89.1% and the ECLU confirmatory assay worked out at 319 ECLU.
Taken in the same sequence, the figures for B3 were 13.2% and 2530 ECLU.
The matching figures for B6: 91.4% and 251 ECLU.
B4: the % reduction was found to be 90.8% and the ECLU confirmatory assay is 268 ECLU.
The matching figures for B7: -13.1% and 3300 ECLU.
